Experimental data taken from patent publication US20050009149A1.
Values joined by “and” are separate entries in the source; they are usually repeats but may differ in a detail not shown here. Identical values can stand only once.

Tests used:
zTNF4 = zTNF4 (UniProt Q9Y275); assay: cell-based or functional assay
[1] = biological target: human TACI on Jurkat TACI KZ142 Luciferase cells (human) (UniProt O14836); assay: cell-based or functional assay
UniProt O14836, sequence (O14836 whole entry): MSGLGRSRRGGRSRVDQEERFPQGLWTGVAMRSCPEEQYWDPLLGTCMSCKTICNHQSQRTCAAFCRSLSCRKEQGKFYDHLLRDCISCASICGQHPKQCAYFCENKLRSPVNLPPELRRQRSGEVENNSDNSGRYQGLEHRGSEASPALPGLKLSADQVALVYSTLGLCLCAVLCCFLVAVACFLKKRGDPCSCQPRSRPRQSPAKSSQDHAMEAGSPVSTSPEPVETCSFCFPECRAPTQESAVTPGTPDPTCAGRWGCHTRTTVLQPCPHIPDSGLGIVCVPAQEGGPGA

| Substance | EC50, inhibition of zTNF4-stimulated human B-cell proliferation (3H-thymidine incorporation) (zTNF4) | fold effectiveness against TACI-Fc5, inhibition of zTNF4-induced B-cell proliferation (zTNF4) | fold efficiency at inhibiting zTNF4-stimulated proliferation of human B-cells (zTNF4) | luciferase responsiveness of Jurkat TACI KZ142 Luciferase cells [1] |
| --- | --- | --- | --- | --- |
| TACI-Fc fusion protein (from UniProt O14836 1-165) | 1.1 nM | – | – | – |
| TACI-NC1 (fusion of an extracellular domain of TACI and the NC1 domain of human collagen X, with Glu-Glu tag) | 0.057 nM | 19 times | 10 fold | – |
| zTNF4 (from UniProt Q9Y275 134-285) (ligand) | – | – | – | 18 fold and 10 fold |
